Experimental data reported in patent publication US20180346580A1 (INTERVET, published 2018).
Values joined by “and” are separate entries in the source; they are usually repeats but may differ in a detail not shown here. Identical values can stand only once.

B1: canine IL-4 receptor alpha chain (full length) expressed on the surface of CHO DG44 cells (receptor)
chain: VKVLHEPSCFSDYISTSVCQWKMDHPTNCSAELRLSYQLDFMGSENHTCVPENREDSVCVCSMPIDDAVEADVYQLDLWAGQQLLWSGSFQPSKHVKPRTPGNLTVHPNISHTWLLMWTNPYPTENHLHSELTYMVNVSNDNDPEDFKVYNVTYMGPTLRLAASTLKSGASYSARVRAWAQTYNSTWSDWSPSTTWLNYYEPWEQHLPLGVSISCLVILAICLSCYFSIIKIKKGWWDQIPNPAHSPLVAIVIQDSQVSLWGKRSRGQEPAKCPHWKTCLTKLLPCLLEHGLGREEESPKTAKNGPLQGPGKPAWCPVEVSKTILWPESISVVQCVELSEAPVDNEEEEEVEEDKRSLCPSLEGSGGSFQEGREGIVARLTESLFLDLLGGENGGFCPQGLEESCLPPPSGSVGAQMPWAQFPRAGPRAAPEGPEQPRRPESALQASPTQSAGSSAFPEPPPVVTDNPAYRSFGSFLGQSSDPGDGDSDPELADRPGEADPGIPSAPQPPEPPAALQPEPESWEQILRQSVLQHRAAPAPGPGPGSGYREFTCAVKQGSAPDAGGPGFGPSGEAGYKAFCSLLPGGATCPGTSGGEAGSGEGGYKPFQSLTPGCPGAPTPVPVPLFTFGLDTEPPGSPQDSLGAGSSPEHLGVEPAGKEEDSRKTLLAPEQATDPLRDDLASSIVYSALTCHLCGHLKQWHDQEERGKAHIVPSPCCGCCCGDRSSLLLSPLRAPNVLPGGVLLEASLSPASLVPSGVSKEGKSSPFSQPASSSAQSSSQTPKKLAVLSTEPTCMSAS
notes: also called cIL-4Rα; CHO-cIL-4Rα
B2: canine IL-4 (R&D system, cat #754-CL/CF), biotinylated (ligand, UniProt O77762 25-132, looked up)
chain: HNFNITIKEIIKMLNILTARNDSCMELTVKDVFTAPKNTSDKEIFCRAATVLRQIYTHNCSNRYLRGLYRNLSSMANKTCSMNEIKKSTLKDFLERLKVIMQKKYYRH
modifications: biotinylated with Lightning-Link Biotin Conjugation Kit Type A
notes: Purchased protein; also called canine interleukin-4; biotinylated canine IL-4

Tests used:
[1] = target: B2; experiment: FACS, biotinylated canine IL-4 on CHO cells expressing canine IL-4Rα
[2] = target: B1; experiment: flow cytometry, cell-based CHO-cIL-4Rα binding assay
[3] = target: B1; experiment: flow cytometry ligand blockade on CHO-cIL-4Rα cells; competitor biotinylated canine IL-4 at 0.32 µg/mL; one of two separate studies
Description: Procedure: [0247] 1. CHO-DH44-canIL-4Rα cell grown to 2-4 ×10⁶ cells/mL with more than 96% viability. [0248] 2. The cells were spun down, the supernatant discarded, and the cells were suspended in FACS buffer to 2×10⁷ cells/mL. [0249] 3. The cells were distributed into a U-shape 96-well plate, 50 μl each well. [0250] 4. The anti-canine IL-4Rα mAbs in FACS buffer was diluted three-fold on a 96-well plate from top down to bottom well, starting at 50 μg/mL. [0251] 5. 50 μl of each diluted Ab was transferred into the cell plate and then incubated on ice for 30 min. [0252] 6. The cells were washed twice with FACS buffer. [0253] 7. The cells were resuspended into 100 μl of biotinylated canine IL-4 at 0.32 μg/mL in FACS buffer and incubated on ice for 30 min. [0254] 8. The cells were washed twice with FACS buffer. [0255] 9. The cells were responded into 100 μl of R-phycoerythin conjugated Streptavidin (1:1000 dilution) in FACS buffer and incubated on ice for 30 min. [0256] 10. The cells were washed twice with FACS buffer. [0257] 11. The cells were brought up to 300 μl in FACS buffer. [0258] 12. 10,000 cells were read for each sample by BD Accuri-C6. [0259] 13. The resulting readout were analyzed by FlowJo to get the mean fluorescent intensity (MFI).

[4] = target: B1; experiment: flow cytometry, binding to CHO-cIL-4Rα cells

B1
binding result [1]: binds

B2
EC50 [2]: 25 nM

B3: mouse anti-canine IL-4Rα monoclonal antibody 11H2 (antibody, V domains shown)
VH: DVKLVESGGGLVQPGGSLKLSCAASGFTFSDYYMYWVRQTPEKRLEWVAYVSSGGGSIYYPDTVKGRFTISRDNAKNTLYLQMSRLKSEDTAMYYCARHGSPFGSSRGAWFAYWGQGTLVTVSA
VL: DIQMTQSPASLSASVGETVTITCRASENIYSYLAWYQQKQGKSPQLLVYNAKTLAEGVPSRFSGSGSGTQFSLKINSLQPEDFGNYYCQHYDGFPFTFGGGTKLELK
notes: Hybridoma-derived mouse antibody; also called mAb 11H2
IC50 [3]: 1.7 nM and 1 nM | EC50 [4]: 1.2 nM
